Reference: patent publication US7405061

Target: antigen PIPA (human)
Assay: cell-based or functional assay

decrease in cell proliferation of OV90 cells (MTT) with PIP at 10 ug/ml and MAb-ZAP saporin-linked secondary antibody: 50 percent
B1: monoclonal antibody PIP (antibody, V domains shown)
V domain 1: DVQLQESGPDLVKPSQSVSLTCTVTGYSITSGYGWHWIRQFPGNKLEWMGCIHYSGSTNYNPSLKSRISVTRDTSKNQFFLQLNSVTTEDTATYYCARREYGNYAMDYWGQGTSVTVSS
V domain 2: B1 V domain 1
